# Target: MucA’ protein (plasmid pKM101 (host species not stated))
# Assay: SPR; BIAcore 2000, kinetic analysis at lower ligand densities (577 RU of immobilized β, 1036 RU of immobilized MucA’ on CM5); MucB in the mobile phase; BSA reference cell; apparent constants; data not shown
binder,measurement,value
MucB protein (enzyme) MFALIDVNGMYASCEQAFRPDLANRAVAVLSNNDGNIVARNYLAKKAGLKMGDPYFKVRPIIERHNIAIFSSNYTLYASMSARFAAVVESLASHVEQYSIDELFVDCKGITAAMSLDAFGRQLREEVRRHTTLVCGVGIARTKTLAKLCNHAAKTWPATGGVVALDDGARLKKLMSILPVAEVWGVGHRTEKALATMGIKTVLDLARADTRLIRKTFGVVLERTVRELRGEACFSLEENPPAKQQIVVSRSFGQRVETLTDMQQAVTGFAARAAEKLRNERQYCRVISVFIRTSPYSVRDTQYANQATEKLTVATQDSRTIIQAAQALARIWREDIAYAKAGVMLADFSGKEAQLDLFDSATPSAGSEALMAVLDGINRRGKNQLFFAGQGIDNSFAMRRQMLSPDYTTDWRSIPIATIK,Kd,1.99 nM
same,amount bound (RU),355 RU
same,koff,0.000127 s⁻¹
same,kon,63900 M⁻¹ s⁻¹
